# Source: US20140199706A1
# Like-named read-outs stand apart in the source and are kept apart here.
# Key:
# yeast proteasome (26S) [1] = test system: yeast proteasome (26S)
# yeast proteasome (26S) [2] = target: yeast proteasome (26S); remark: listed apart in the source
# [3] = target: proteasome regulatory particle (RP) purified from a ubp6Δ strain
# [4] = target: yeast proteasome (26S) (S. cerevisiae (yeast)); test: cell-based or functional assay
"inhibition of degradation of ub-cyclin B (quantitative mass spectrometry, 20-minute incubation) [4] [%]",Molecule,cyclin B degradation assay (yeast proteasome (26S) [1]),cyclin B degradation by ubp6Δ proteasomes after add-back of recombinant Ubp6 (yeast proteasome (26S) [2]),deubiquitination of cyclin B (yeast proteasome (26S) [2]),ubiquitin chain shortening of ub-cyclin B conjugates [3],cyclin B degradation assay (yeast proteasome (26S) [2])
–,Ubp6-ublΔ,Deletion of the Ubl domain rendered Ubp6 non-inhibitory in the cyclin B degradation assay (FIG. 4B),–,–,–,–
70,Ubp6 (protein) MSGETFEFNIRHSGKVYPITLSTDATSADLKSKAEELTQVPSARQKYMVKGGLSGEESIKIYPLIKPGSTVMLLGTPDANLISKPAKKNNFIEDLAPEQQVQQFAQLPVGFKNMGNTCYLNATLQALYRVNDLRDMILNYNPSQGVSNSGAQDEEIHKQIVIEMKRCFENLQNKSFKSVLPIVLLNTLRKCYPQFAERDSQGGFYKQQDAEELFTQLFHSMSIVFGDKFSEDFRIQFKTTIKDTANDNDITVKENESDSKLQCHISGTTNFMRNGLLEGLNEKIEKRSDLTGANSIYSVEKKISRLPKFLTVQYVRFFWKRSTNKKSKILRKVVFPFQLDVADMLTPEYAAEKVKVRDELRKVEKEKNEKEREIKRRKFDPSSSENVMTPREQYETQVALNESEKDQWLEEYKKHFPPNLEKGENPSCVYNLIGVITHQGANSESGHYQAFIRDELDENKWYKFNDDKVSVVEKEKIESLAGGGESDSALILMYKGFGL,–,a marked inhibition of cyclin B degradation (FIG. 1F) was observed,"when Ubp6 is incubated in the presence of cyclin B, but without proteasomes, no deubiquitination of cyclin B is observed (FIG. 4D)","addition of purified Ubp6 to RP resulted in chain shortening, although to a lesser extent than with 26S proteasomes (FIG. 6A)",–
70,Ubp6-C118A (protein) MSGETFEFNIRHSGKVYPITLSTDATSADLKSKAEELTQVPSARQKYMVKGGLSGEESIKIYPLIKPGSTVMLLGTPDANLISKPAKKNNFIEDLAPEQQVQQFAQLPVGFKNMGNTAYLNATLQALYRVNDLRDMILNYNPSQGVSNSGAQDEEIHKQIVIEMKRCFENLQNKSFKSVLPIVLLNTLRKCYPQFAERDSQGGFYKQQDAEELFTQLFHSMSIVFGDKFSEDFRIQFKTTIKDTANDNDITVKENESDSKLQCHISGTTNFMRNGLLEGLNEKIEKRSDLTGANSIYSVEKKISRLPKFLTVQYVRFFWKRSTNKKSKILRKVVFPFQLDVADMLTPEYAAEKVKVRDELRKVEKEKNEKEREIKRRKFDPSSSENVMTPREQYETQVALNESEKDQWLEEYKKHFPPNLEKGENPSCVYNLIGVITHQGANSESGHYQAFIRDELDENKWYKFNDDKVSVVEKEKIESLAGGGESDSALILMYKGFGL,–,–,–,–,a catalytically inactive point mutant of Ubp6 (Ubp6-C118A) proved competent for inhibition (FIG. 4B)
